From publication PMC13083842 (2026) come the findings set out here.

What all share (assay): SPR
(In general: In SPR one partner is held on a chip, and binding of the other changes the refractive index at the surface.)

Assay [1] concerns the target T1, soluble IL-6 receptor (sIL-6R) (human (from the printed accession …, UniProt P08887 20-355)).
T1 chain: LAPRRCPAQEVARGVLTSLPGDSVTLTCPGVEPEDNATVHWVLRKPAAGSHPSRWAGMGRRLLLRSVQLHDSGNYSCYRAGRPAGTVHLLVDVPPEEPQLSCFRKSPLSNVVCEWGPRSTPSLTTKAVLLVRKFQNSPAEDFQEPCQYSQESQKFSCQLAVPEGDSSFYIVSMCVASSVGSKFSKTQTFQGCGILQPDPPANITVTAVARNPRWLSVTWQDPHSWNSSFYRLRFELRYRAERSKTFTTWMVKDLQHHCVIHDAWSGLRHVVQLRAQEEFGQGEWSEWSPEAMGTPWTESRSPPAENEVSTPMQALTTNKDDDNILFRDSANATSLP

The target in assay [2] is T2, interleukin-6 (IL-6) (human, UniProt P05231 30-212).
T2 sequence (P05231 30-212): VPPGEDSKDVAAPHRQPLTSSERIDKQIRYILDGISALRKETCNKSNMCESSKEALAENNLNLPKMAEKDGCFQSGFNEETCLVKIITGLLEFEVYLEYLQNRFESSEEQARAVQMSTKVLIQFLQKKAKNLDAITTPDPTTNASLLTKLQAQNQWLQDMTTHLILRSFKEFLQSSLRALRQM
The target of assay [3] is T2, interleukin-6 (IL-6). This is another data set of the same source.

Where two headings read alike, the source gives them in different places. Bounds are passed on as bounds.

B1: tocilizumab-TGN 1:10 (antibody, V domains shown)
VH: QVQLQESGPGLVRPSQTLSLTCTVSGYSITSDHAWSWVRQPPGRGLEWIGYISYSGITTYNPSLKSRVTMLRDTSKNQFSLRLSSVTAADTAVYYCARSLARTTAMDYWGQGSLVTVSS
VL: DIQMTQSPSSLSASVGDRVTITCRASQDISSYLNWYQQKPGKAPKLLIYYTSRLHSGVPSRFSGSGSGTDFTFTISSLQPEDIATYYCQQGNTLPYTFGQGTKVEIK
modifications: Tris-GalNAc-PEG5 (TGN) on accessible primary amines (lysines), not site-specific; coupling ratio 1:10; GPR 4.75 for the antibody | Tris-GalNAc-PEG5 (TGN) on accessible primary amines (lysines), not site-specific; coupling ratio 1:10; GPR 4.75 for the antibody
The term Kd denotes the constant that tells how readily two partners part at equilibrium. A high value points to a looser complex. B1 registered a Kd in assay [1] of 0.212 nM.

B2: tocilizumab-TGN 1:25 (antibody, V domains shown)
VH: B1 VH
VL: B1 VL
modifications: Tris-GalNAc-PEG5 (TGN) on accessible primary amines (lysines), not site-specific; coupling ratio 1:25; GPR of 15.36 for the antibody | Tris-GalNAc-PEG5 (TGN) on accessible primary amines (lysines), not site-specific; coupling ratio 1:25; GPR of 15.36 for the antibody
In assay [1], B2 showed a Kd of 0.328 nM.

B3: tocilizumab-TGN 1:5 (antibody, V domains shown)
VH: B1 VH
VL: B1 VL
modifications: Tris-GalNAc-PEG5 (TGN) on accessible primary amines (lysines), not site-specific; coupling ratio 1:5; GPR 2.51 for the antibody | Tris-GalNAc-PEG5 (TGN) on accessible primary amines (lysines), not site-specific; coupling ratio 1:5; GPR 2.51 for the antibody
Turning to B3, binding in assay [1] was put at a Kd of 0.093 nM.

B4: tocilizumab (antibody, V domains shown)
VH: B1 VH
VL: B1 VL
In turn, B4 registered a Kd in assay [1] of 0.068 nM.

B5: tocilizumab-TGN 1:1 (antibody, V domains shown)
VH: B1 VH
VL: B1 VL
modifications: Tris-GalNAc-PEG5 (TGN) on accessible primary amines (lysines), not site-specific; coupling ratio 1:1; GPR = 0.35 for the antibody | Tris-GalNAc-PEG5 (TGN) on accessible primary amines (lysines), not site-specific; coupling ratio 1:1; GPR = 0.35 for the antibody
On to B5, for which the Kd in assay [1] was under 0.038 nM.

B6: sIL-6R-TGN 1:1 (receptor)
chain: T1 chain
modifications: Tris-GalNAc-PEG5 (TGN) on accessible primary amines (lysines), not site-specific; coupling ratio 1:1; GPR could not be determined
In the case of B6, in the assay with interleukin-6 (IL-6) [2], the Kd is 166 nM.

B7: sIL-6R-TGN 1:10 (receptor)
chain: T1 chain
modifications: Tris-GalNAc-PEG5 (TGN) on accessible primary amines (lysines), not site-specific; coupling ratio 1:10; GPR could not be determined
Take B7: the Kd in the assay with interleukin-6 (IL-6) [2] stood at 428 nM.

B8: sIL-6R-TGN 1:5 (receptor)
chain: T1 chain
modifications: Tris-GalNAc-PEG5 (TGN) on accessible primary amines (lysines), not site-specific; coupling ratio 1:5; GPR could not be determined
In the assay with interleukin-6 (IL-6) [2], B8 showed a Kd of 230 nM.

B9: siltuximab-TGN 1:1 (antibody, V domains shown)
VH: EVQLVESGGKLLKPGGSLKLSCAASGFTFSSFAMSWFRQSPEKRLEWVAEISSGGSYTYYPDTVTGRFTISRDNAKNTLYLEMSSLRSEDTAMYYCARGLWGYYALDYWGQGTSVTVSS
VL: QIVLIQSPAIMSASPGEKVTMTCSASSSVSYMYWYQQKPGSSPRLLIYDTSNLASGVPVRFSGSGSGTSYSLTISRMEAEDAATYYCQQWSGYPYTFGGGTKLEIK
modifications: Tris-GalNAc-PEG5 (TGN) on accessible primary amines (lysines), not site-specific; coupling ratio 1:1; GPR = 0.2 for the antibody | Tris-GalNAc-PEG5 (TGN) on accessible primary amines (lysines), not site-specific; coupling ratio 1:1; GPR = 0.2 for the antibody
As for B9, the Kd with interleukin-6 (IL-6) [3] was under 0.019 nM.

B10: siltuximab-TGN 1:5 (antibody, V domains shown)
VH: B9 VH
VL: B9 VL
modifications: Tris-GalNAc-PEG5 (TGN) on accessible primary amines (lysines), not site-specific; coupling ratio 1:5 | Tris-GalNAc-PEG5 (TGN) on accessible primary amines (lysines), not site-specific; coupling ratio 1:5
Turning to B10, in the assay with interleukin-6 (IL-6) [3], the Kd was under 0.027 nM.

B11: siltuximab (antibody, V domains shown)
VH: B9 VH
VL: B9 VL
Molecule B11 showed an equilibrium dissociation constant (Kd) with interleukin-6 (IL-6) [3] of under 0.022 nM.

B12: siltuximab-TGN 1:10 (antibody, V domains shown)
VH: B9 VH
VL: B9 VL
modifications: Tris-GalNAc-PEG5 (TGN) on accessible primary amines (lysines), not site-specific; coupling ratio 1:10 | Tris-GalNAc-PEG5 (TGN) on accessible primary amines (lysines), not site-specific; coupling ratio 1:10
Turning to B12, the dissociation constant (Kd) in the assay with interleukin-6 (IL-6) [3] was under 0.036 nM.
